Values joined by “and” are separate entries in the source; they are usually repeats but may differ in a detail not shown here. Identical values can stand only once.
T1: NbGlk1(83-402) (Nicotiana benthamiana, UniProt A0A1S4ALG4 83-410)
T1 sequence: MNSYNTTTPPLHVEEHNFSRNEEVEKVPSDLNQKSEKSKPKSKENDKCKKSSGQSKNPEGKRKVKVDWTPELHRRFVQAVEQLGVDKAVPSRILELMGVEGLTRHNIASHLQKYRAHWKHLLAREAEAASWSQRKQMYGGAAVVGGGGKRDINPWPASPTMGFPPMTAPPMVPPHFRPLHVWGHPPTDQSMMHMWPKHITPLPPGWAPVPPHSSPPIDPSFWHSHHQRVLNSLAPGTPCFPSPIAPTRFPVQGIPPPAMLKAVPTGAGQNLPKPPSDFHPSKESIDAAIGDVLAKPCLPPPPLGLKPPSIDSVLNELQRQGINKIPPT

T2: NbGlk1(83-243) (Nicotiana benthamiana, UniProt A0A1S4ALG4 83-252)
T2 sequence: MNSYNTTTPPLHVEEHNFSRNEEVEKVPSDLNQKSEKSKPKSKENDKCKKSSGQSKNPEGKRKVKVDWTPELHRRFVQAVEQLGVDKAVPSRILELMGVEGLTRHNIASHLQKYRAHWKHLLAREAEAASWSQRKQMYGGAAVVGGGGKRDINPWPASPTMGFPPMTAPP

T3: NbGlk1(83-243) (Nicotiana benthamiana)
T3 chain: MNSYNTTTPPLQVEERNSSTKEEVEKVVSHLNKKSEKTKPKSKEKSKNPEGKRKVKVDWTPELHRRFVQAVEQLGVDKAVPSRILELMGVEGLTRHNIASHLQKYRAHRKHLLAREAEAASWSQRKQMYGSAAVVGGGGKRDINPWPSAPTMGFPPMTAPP

T4: NbGlk1(83-402) (Nicotiana benthamiana)
T4 chain: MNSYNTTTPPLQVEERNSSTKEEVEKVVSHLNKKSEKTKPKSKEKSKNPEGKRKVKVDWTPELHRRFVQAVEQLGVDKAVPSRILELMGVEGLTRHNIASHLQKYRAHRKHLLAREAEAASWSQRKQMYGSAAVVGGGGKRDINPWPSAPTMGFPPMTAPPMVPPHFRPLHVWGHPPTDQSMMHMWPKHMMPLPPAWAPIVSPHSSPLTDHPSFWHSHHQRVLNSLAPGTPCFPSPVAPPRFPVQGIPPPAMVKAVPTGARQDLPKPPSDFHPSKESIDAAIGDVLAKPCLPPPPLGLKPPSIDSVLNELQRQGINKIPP


Columns and labels:
NbGlk1(83-402) [1] = molecular target: T1, NbGlk1(83-402); assay: fluorescence anisotropy; no Rx1; 20 mM Tris-HCl pH 7.4, 140 mM NaCl, 1 mM DTT; 10 nM fluorescein-labelled dsDNA; temperature not stated; Kd unit uM inferred from text (Kd >1 uM); conditions: protein: recombinant; tags: His6 (pET14b); label: 6-carboxyfluorescein end label on FA-1; annealed complementary oligonucleotides
NbGlk1(83-243) [2] = molecular target: T2, NbGlk1(83-243); assay: as above; conditions: protein: recombinant; tags: His6 (pET14b); label: 6-carboxyfluorescein end label on FA-1; annealed complementary oligonucleotides
NbGlk1(83-402) [3] = molecular target: T1, NbGlk1(83-402); assay: fluorescence anisotropy; no Rx1 (Table 2 series); 20 mM Tris-HCl pH 7.4, 140 mM NaCl, 1 mM DTT; 10 nM fluorescein-labelled dsDNA; temperature not stated; Kd unit uM inferred from text (Kd >1 uM); conditions: protein: recombinant; tags: His6 (pET14b); label: 6-carboxyfluorescein end label on FA-1; annealed complementary oligonucleotides
NbGlk1(83-243) [4] = molecular target: T3, NbGlk1(83-243); assay: fluorescence anisotropy; Fluorescence anisotropy: 20 mM Tris-HCl pH 7.4, 140 mM NaCl, 1 mM DTT, 10 nM labelled DNA; temperature not stated. PBM conditions as in cited protocols.; conditions: protein: recombinant, tags: His6 (pET14b), annealed complementary oligonucleotides
NbGlk1(83-402) [5] = molecular target: T4, NbGlk1(83-402); assay: as above; conditions: protein: recombinant, tags: His6 (pET14b), annealed complementary oligonucleotides
NbGlk1(83-402) [6] = molecular target: T1, NbGlk1(83-402); assay: fluorescence anisotropy; conditions: 20 mM Tris-HCl pH 7.4, 140 mM NaCl, 1 mM DTT, 10 nM fluorescein-labelled dsDNA, temperature not stated, Kd unit uM inferred from text (Kd >1 uM)
NbGlk1(83-243) [7] = molecular target: T2, NbGlk1(83-243); assay: fluorescence anisotropy; conditions: 20 mM Tris-HCl pH 7.4, 140 mM NaCl, 1 mM DTT, 10 nM fluorescein-labelled dsDNA, temperature not stated, Kd unit uM inferred from text (Kd >1 uM)
[8] = test system: NbGlk1(1-243) (Nicotiana benthamiana); assay: fluorescence anisotropy; conditions: 20 mM Tris-HCl pH 7.4, 140 mM NaCl, 1 mM DTT, 10 nM fluorescein-labelled dsDNA, temperature not stated, Kd unit uM inferred from text (Kd >1 uM)
[9] = label: 6-carboxyfluorescein end label on FA-1
[10] = label: 6-carboxyfluorescein end label on FA-5
[11] = label: 6-carboxyfluorescein end label on FA-3

Binder | Kd (NbGlk1(83-402) [1]) [µM] | Kd (NbGlk1(83-243) [2]) [µM] | Kd (NbGlk1(83-402) [3]) [µM] | Kd (NbGlk1(83-243) [4]; [9]) [µM] | Kd (NbGlk1(83-402) [5]; [9]) | Kd (NbGlk1(83-243) [4]; [10]) [µM] | Kd (NbGlk1(83-402) [5]; [10]) | Kd (NbGlk1(83-402) [6]; + Rx1(1-144)) [µM] | Kd (NbGlk1(83-402) [6]; + Rx1(1-489)) [µM] | Kd (NbGlk1(83-402) [6]; + Rx1(GST-1-144)) [µM] | Kd (NbGlk1(83-402) [6]; no Rx1 (Table 2 series)) [µM] | Kd (NbGlk1(83-402) [6]; no Rx1) [µM] | Kd (NbGlk1(83-243) [7]; + Rx1(1-144)) [µM] | Kd (NbGlk1(83-243) [7]; + Rx1(1-489)) [µM] | Kd (NbGlk1(83-243) [7]; no Rx1) [µM] | Kd ([8]; + Rx1(1-144)) [µM] | Kd ([8]; + Rx1(1-489)) [µM] | Kd ([8]; no Rx1, text: only a weak affinity) [µM] | Kd (NbGlk1(83-243) [4]; [11]) [µM] | Kd (NbGlk1(83-402) [5]; [11])
No site (FA-1/FA-2) (dsDNA) DNA 1: CACTGTGACACACTGTGACACACTGTGACACACTGTGACACACTGTGACC DNA 2: GGTCACAGTGTGTCACAGTGTGTCACAGTGTGTCACAGTGTGTCACAGTG | 0.18 ± 0.01 | 0.33 ± 0.02 | 0.32 ± 0.03 | 0.33 ± 0.02 | 0.32 µM and 0.18 µM |  |  |  |  |  |  |  |  |  |  |  |  |  |  | 
GATATC (concatenated GGATATCC; FA-5/FA-6) (dsDNA) DNA 1: CGGATATCCACGGATATCCACGGATATCCACGGATATCCACGGATATCCC DNA 2: GGGATATCCGTGGATATCCGTGGATATCCGTGGATATCCGTGGATATCCG |  |  |  |  |  | 0.18 ± 0.01 | 0.08 µM and 0.11 µM | 0.3 | 0.19 | 0.34 | 0.11 | 0.08 | 0.4 | 0.5 | 0.18 | > 1 | > 1 | > 1 |  | 
AGATTT (concatenated AGATTTCC; FA-3/FA-4) (dsDNA) DNA 1: CAGATTTCCACAGATTTCCACAGATTTCCACAGATTTCCACAGATTTCCC DNA 2: GGGAAATCTGTGGAAATCTGTGGAAATCTGTGGAAATCTGTGGAAATCTG |  |  |  |  |  |  |  | 0.46 | 0.34 | 0.73 | 0.22 | 0.16 | 0.76 | 0.65 | 0.23 |  |  |  | 0.23 ± 0.01 | 0.16 µM and 0.22 µM
